# Laboratory results: US20120135923A1, “Use of Melanocortins to Treat Dyslipidemia” (IPSEN PHARMA, S.A.S., priority 2009, published 2012)
# Bridge positions count the residues as written; N and C are the ends. Square brackets hold non-standard residues; d marks the D form. Ends that are not written are not given here. Orn = NCCC[C@H](N)C(=O)O; Dab = NCC[C@H](N)C(=O)O; Dap = NC[C@H](N)C(=O)O
# Tests used:
# [1] = target: human melanocortin receptor subtype 1 (hMC1-R) (human) (UniProt Q01726); experiment: [125I]-NDP-α-MSH competition, membranes
# Sequence of human melanocortin receptor subtype 1 (hMC1-R) (human) (Q01726 whole entry): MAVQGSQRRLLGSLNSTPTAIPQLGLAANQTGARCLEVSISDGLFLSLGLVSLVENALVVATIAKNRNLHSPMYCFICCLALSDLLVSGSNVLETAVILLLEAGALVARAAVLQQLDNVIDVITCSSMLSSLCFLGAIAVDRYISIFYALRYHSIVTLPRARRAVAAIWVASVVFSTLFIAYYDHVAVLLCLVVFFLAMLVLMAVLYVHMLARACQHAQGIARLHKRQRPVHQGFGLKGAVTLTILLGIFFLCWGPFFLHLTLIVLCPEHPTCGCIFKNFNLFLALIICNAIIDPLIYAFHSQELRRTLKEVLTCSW
# [2] = target: human melanocortin receptor subtype 4 (hMC4-R) (human) (UniProt P32245); experiment: [125I]-NDP-α-MSH competition, membranes
# Sequence of human melanocortin receptor subtype 4 (hMC4-R) (human) (P32245 whole entry): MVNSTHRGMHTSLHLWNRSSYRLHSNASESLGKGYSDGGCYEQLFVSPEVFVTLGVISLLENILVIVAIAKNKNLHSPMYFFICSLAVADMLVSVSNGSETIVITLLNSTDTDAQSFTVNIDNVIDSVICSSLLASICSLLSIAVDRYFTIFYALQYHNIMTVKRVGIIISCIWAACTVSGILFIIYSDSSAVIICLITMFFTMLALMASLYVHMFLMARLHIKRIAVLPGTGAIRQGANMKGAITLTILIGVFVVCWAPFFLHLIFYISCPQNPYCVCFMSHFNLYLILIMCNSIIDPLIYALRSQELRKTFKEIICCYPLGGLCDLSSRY
# [3] = target: human melanocortin receptor subtype 3 (hMC3-R) (human) (UniProt P41968); experiment: [125I]-NDP-α-MSH competition, membranes
# Sequence of human melanocortin receptor subtype 3 (hMC3-R) (human) (P41968 whole entry): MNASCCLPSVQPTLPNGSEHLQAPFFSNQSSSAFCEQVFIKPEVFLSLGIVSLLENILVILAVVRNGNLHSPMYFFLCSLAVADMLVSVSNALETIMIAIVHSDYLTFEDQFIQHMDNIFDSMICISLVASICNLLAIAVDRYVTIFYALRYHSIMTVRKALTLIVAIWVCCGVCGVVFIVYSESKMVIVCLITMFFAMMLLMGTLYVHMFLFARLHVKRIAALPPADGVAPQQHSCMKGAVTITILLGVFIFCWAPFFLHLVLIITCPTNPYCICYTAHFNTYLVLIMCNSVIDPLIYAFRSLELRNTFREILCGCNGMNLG
# hMC4-R (human) = hMC4-R (human) (UniProt P32245); experiment: cell-based or functional assay
# Sequence of hMC4-R (human) (P32245 whole entry): as the sequence (P32245 whole entry) above
# hMC3-R (human) = hMC3-R (human) (UniProt P41968); experiment: cell-based or functional assay
# Sequence of hMC3-R (human) (P41968 whole entry): as the sequence (P41968 whole entry) above
# hMC5-R (human) = hMC5-R (human) (UniProt P33032); experiment: cell-based or functional assay
# Sequence of hMC5-R (human) (P33032 whole entry): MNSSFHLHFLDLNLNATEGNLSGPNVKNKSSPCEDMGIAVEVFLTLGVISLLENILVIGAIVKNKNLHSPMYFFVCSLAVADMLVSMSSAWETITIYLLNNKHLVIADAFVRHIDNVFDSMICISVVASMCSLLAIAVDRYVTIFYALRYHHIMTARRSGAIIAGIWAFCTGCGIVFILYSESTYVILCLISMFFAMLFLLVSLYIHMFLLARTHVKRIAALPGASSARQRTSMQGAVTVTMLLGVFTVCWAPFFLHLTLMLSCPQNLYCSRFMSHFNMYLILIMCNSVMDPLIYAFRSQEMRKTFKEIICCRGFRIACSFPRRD
# hMC1-R (human) = hMC1-R (human) (UniProt Q01726); experiment: cell-based or functional assay
# Sequence of hMC1-R (human) (Q01726 whole entry): as the sequence (Q01726 whole entry) above
# [4] = target: human melanocortin receptor subtype 5 (hMC5-R) (human) (UniProt P33032); experiment: [125I]-NDP-α-MSH competition, membranes
# Sequence of human melanocortin receptor subtype 5 (hMC5-R) (human) (P33032 whole entry): as the sequence (P33032 whole entry) above
# hMC5-R (human), P33032 = experiment: competition with [125I]-NDP-α-MSH, CHO-K1 membranes
# Sequence of hMC5-R (human), P33032 (P33032 whole entry): as above
# [5] = target: human melanocortin receptor subtype 5 (hMC5-R) (human), P33032; experiment: [125I]-NDP-α-MSH competition, membranes
# Sequence of human melanocortin receptor subtype 5 (hMC5-R) (human), P33032 (P33032 whole entry): as above
# [6] = target: human melanocortin receptor subtype 1 (hMC1-R) (human), Q01726; experiment: [125I]-NDP-α-MSH competition, membranes
# Sequence of human melanocortin receptor subtype 1 (hMC1-R) (human), Q01726 (Q01726 whole entry): as the sequence (Q01726 whole entry) above
# [7] = target: human melanocortin receptor subtype 3 (hMC3-R) (human), P41968; experiment: [125I]-NDP-α-MSH competition, membranes
# Sequence of human melanocortin receptor subtype 3 (hMC3-R) (human), P41968 (P41968 whole entry): as the sequence (P41968 whole entry) above
# [8] = target: human melanocortin receptor subtype 4 (hMC4-R) (human), P32245; experiment: [125I]-NDP-α-MSH competition, membranes
# Sequence of human melanocortin receptor subtype 4 (hMC4-R) (human), P32245 (P32245 whole entry): as the sequence (P32245 whole entry) above
Binder,Ki [1] [nM],Ki [2] [nM],Ki [3] [nM],Ki [5] [nM],Ki [6] [nM],Ki [7] [nM],Ki [8] [nM],further results
E[dA]H[dF]RW[Orn]-NH2 (lactam 1-7 (inferred); also: residues 1-2 joined in a hydantoin ring (C(O))) [c[Hydantoin(C(O)-(Glu-D-Ala))-His-D-Phe-Arg-Trp-Orn]-NH2],60.4,52.4,2840,,,,,cAMP EC50 (hMC4-R (human)): 4.94 nM; cAMP EC50 (hMC3-R (human)): 39.2 nM
E[dA]H[dF]RW[Dap]-NH2 (lactam 1-7 (inferred); also: residues 1-2 joined in a hydantoin ring (C(O))) [c[Hydantoin(C(O)-(Glu-D-Ala))-His-D-Phe-Arg-Trp-Dap]-NH2],16.4,4.97,863,,,,,cAMP EC50 (hMC4-R (human)): 0.182 nM; cAMP EC50 (hMC5-R (human)): > 10000 nM; cAMP EC50 (hMC1-R (human)): 56.7 nM; cAMP EC50 (hMC3-R (human)): 18.2 nM
D[dA]H[dF]RW[Orn]-NH2 (lactam 1-7; also: residues 1-2 joined in a hydantoin ring (C(O))) [c[Hydantoin(C(O)-(Asp-D-Ala))-His-D-Phe-Arg-Trp-Orn]-NH2],37.7,7.81,576,,,,,Ki [4]: 6400 nM; cAMP EC50 (hMC4-R (human)): 4.5 nM; cAMP EC50 (hMC5-R (human)): 9300 nM; cAMP EC50 (hMC1-R (human)): 56.6 nM; cAMP EC50 (hMC3-R (human)): 88.6 nM
D[dA]H[dF]RW[Dap]-NH2 (lactam 1-7; also: residues 1-2 joined in a hydantoin ring (C(O))) [c[Hydantoin(C(O)-(Asp-D-Ala))-His-D-Phe-Arg-Trp-Dap]-NH2],66.6,19.9,1820,,,,,cAMP EC50 (hMC4-R (human)): 2.12 nM; cAMP EC50 (hMC3-R (human)): 49.3 nM
E[dA]H[dF]RWK-NH2 (lactam 1-7 (inferred); also: hydantoin ring from C(O) with Glu1-D-Ala2) [c[Hydantoin(C(O)-(Glu-D-Ala))-His-D-Phe-Arg-Trp-Lys]-NH2],72.6,45.2,1920,,,,,
E[dA]H[dF]RW[Dab]-NH2 (lactam 1-7; also: hydantoin ring from C(O) with Glu1-D-Ala2) [c[Hydantoin(C(O)-(Glu-D-Ala))-His-D-Phe-Arg-Trp-Dab]-NH2],28,12.7,90.5,,,,,Ki [4]: 877 nM
Ac-RC[dA]H[dF]RWC-NH2 (disulfide 2-8) [Ac-Arg-c(Cys-D-Ala-His-D-Phe-Arg-Trp-Cys)-NH2],,,,,,,,"Ki (hMC5-R (human), P33032): 430 nM"
VGC[dA]H[dF]RWC-NH2 (disulfide 3-9; also: hydantoin ring from C(O) with Val1-Gly2) [Hydantoin(C(O)-(Val-Gly))-c(Cys-D-Ala-His-D-Phe-Arg-Trp-Cys)-NH2],,,,33.4,15.3,160,8.66,
IGC[dA]H[dF]RWC-NH2 (disulfide 3-9; also: hydantoin ring from C(O) with Ile1-Gly2) [Hydantoin(C(O)-(Ile-Gly))-c(Cys-D-Ala-His-D-Phe-Arg-Trp-Cys)-NH2],,,,28.9,11.6,194,11.5,
LGC[dA]H[dF]RWC-NH2 (disulfide 3-9; also: hydantoin ring from C(O) with Leu1-Gly2) [Hydantoin(C(O)-(Leu-Gly))-c(Cys-D-Ala-His-D-Phe-Arg-Trp-Cys)-NH2],,,,44.6,19.3,331,26.7,
RGC[dA]H[dF]RWC-NH2 (disulfide 3-9; also: hydantoin ring: C(O) bridging Arg-Gly) [Hydantoin(C(O)-(Arg-Gly))-c(Cys-D-Ala-His-D-Phe-Arg-Trp-Cys)-NH2],,,,650,2.65,41.3,4.17,
G[dR]C[dA]H[dF]RWC-NH2 (bridge N-2 via C(O) hydantoin; disulfide 3-9; not fully specified) [Hydantoin(C(O)-(Gly-D-Arg))-c(Cys-D-Ala-His-D-Phe-Arg-Trp-Cys)-NH2],3.51,6.04,29.2,,,,,Ki [4]: 914 nM
GRC[dA]H[dF]RWC-NH2 (disulfide 3-9; also: hydantoin ring from C(O) with Gly1-Arg2) [Hydantoin(C(O)-(Gly-Arg))-c(Cys-D-Ala-His-D-Phe-Arg-Trp-Cys)-NH2],,,,783,1.14,1.7,4.53,
Ac-FRC[dA]H[dF]RWC-NH2 (disulfide 3-9; SMILES CC(=O)N[C@@H](Cc1ccccc1)C(=O)N[C@@H](CCCNC(=N)N)C(=O)N[C@H]1CSSC[C@@H](C(N)=O)NC(=O)[C@H](Cc2c[nH]c3ccccc23)NC(=O)[C@H](CCCNC(=N)N)NC(=O)[C@@H](Cc2ccccc2)NC(=O)[C@H](Cc2c[nH]cn2)NC(=O)[C@@H](C)NC1=O) [Ac-Phe-Arg-c(Cys-D-Ala-His-D-Phe-Arg-Trp-Cys)-NH2],,,,491,1.48,14.8,2.34,
Ac-WRC[dA]H[dF]RWC-NH2 (disulfide 3-9; SMILES CC(=O)N[C@@H](Cc1c[nH]c2ccccc12)C(=O)N[C@@H](CCCNC(=N)N)C(=O)N[C@H]1CSSC[C@@H](C(N)=O)NC(=O)[C@H](Cc2c[nH]c3ccccc23)NC(=O)[C@H](CCCNC(=N)N)NC(=O)[C@@H](Cc2ccccc2)NC(=O)[C@H](Cc2c[nH]cn2)NC(=O)[C@@H](C)NC1=O) [Ac-Trp-Arg-c(Cys-D-Ala-His-D-Phe-Arg-Trp-Cys)-NH2],,,,1470,4.7,42,2.25,
